PMC6093788

Target: azide-labeled Aβ (14–23) peptide
Assay: AFM force spectroscopy

rupture force, dimer of neighbouring peptides (two-peak curves, peaks close): 44 pN | rupture force, dimer of peptides 1 and 3 (two-peak curves, peaks far): 37 pN | rupture force, monomer from the trimer (peak 1): 48 pN | rupture force, monomer from the trimer (peak 1), second experiment: 44 pN | rupture force, remaining dimer to monomers (peak 2): 53 pN | rupture force, remaining dimer to monomers (peak 2), second experiment: 50 pN | stoichiometry N: 3
Substance: azide-labeled Aβ (14–23) peptide
